Changes are numbered by the printed parent chain.
Assays:
[1] = molecular target: T1, membrane-bound human IL-6R (human, UniProt P08887 20-468); assay: flow cytometry on HepG2 cells, goat anti-human IgG Alexa Fluor 647
T1 construct: whole, on cells; also called mIL-6R; membrane IL-6R
T1 sequence (looked up): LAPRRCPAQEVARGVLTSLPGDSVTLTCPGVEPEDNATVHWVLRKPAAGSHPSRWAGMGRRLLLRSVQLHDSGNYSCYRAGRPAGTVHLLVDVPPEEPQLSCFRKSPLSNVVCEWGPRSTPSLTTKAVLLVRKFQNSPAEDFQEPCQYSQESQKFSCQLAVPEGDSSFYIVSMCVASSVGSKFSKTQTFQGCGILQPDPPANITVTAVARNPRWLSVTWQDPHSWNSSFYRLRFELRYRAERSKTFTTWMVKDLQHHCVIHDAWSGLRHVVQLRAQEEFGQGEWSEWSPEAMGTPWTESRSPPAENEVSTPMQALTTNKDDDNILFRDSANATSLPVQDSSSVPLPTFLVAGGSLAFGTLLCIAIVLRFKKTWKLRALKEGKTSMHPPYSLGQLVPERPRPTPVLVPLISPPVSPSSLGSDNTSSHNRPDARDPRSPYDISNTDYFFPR
Description: Cell surface staining is performed on HepG2 cells with different doses of mAbs. […] Each experiment was performed in triplicates.

MUTANT 4 = molecular target: T2, MUTANT 4 (mouse, UniProt P22272); assay: flow cytometry on PEAK cells displaying the mutated mouse IL-6R, goat anti-human IgG Alexa Fluor 647
T2 construct: also called mouse IL-6R with human residues in D3, mutant 4
T2 sequence (receptor chain, looked up): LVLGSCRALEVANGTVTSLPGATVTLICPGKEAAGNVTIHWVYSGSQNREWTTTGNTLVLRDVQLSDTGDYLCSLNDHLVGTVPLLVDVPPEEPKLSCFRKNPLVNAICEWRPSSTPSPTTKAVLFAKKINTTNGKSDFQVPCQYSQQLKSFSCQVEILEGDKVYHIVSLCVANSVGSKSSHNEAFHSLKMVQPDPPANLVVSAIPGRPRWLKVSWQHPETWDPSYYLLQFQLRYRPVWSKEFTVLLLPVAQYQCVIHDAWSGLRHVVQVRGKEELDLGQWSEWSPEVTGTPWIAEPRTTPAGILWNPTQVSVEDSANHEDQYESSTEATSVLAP
Text: (§1) An overlap extension PCR strategy was used to generate coding sequences specifying huIL-6R/mouseIL-6R chimeric proteins (FIG. 6A) and mouse IL-6R proteins containing human amino acid substitutions in D3 domains (FIG. 6B). Partially overlapping mutagenic oligonucleotide primers were used for PCR amplification of N- and C-terminal sequences on either side of huIL-6R/mouse IL-6R junctions or substituted regions, followed by gel isolation and annealing of the denatured PCR products. Full length PCR products were then digested by EcoRI and BglII and ligated into a pDISPLAY™ vector (Invitrogen). PEAK cells were grown in DMEM medium supplemented with 10% fetal calf serum and 4 mM L-glutamine. Cells were plated 12 to 24 h before transfection to have 40-50% confluency in 6 well plates. Transfections of pDISPLAY™ vectors (Invitrogen) were carried out by lipofection using TransIT® LT1 reagent (MirusBio) according manufacturer's specifications. Cells were grown for 48 h before harvesting and analysis by flow cytometry.
(§2) Cell surface staining was performed on PEAK cells displaying each variant of IL-6R and analyzed by flow cytometry (FIG. 6B-D). Cell surface expression of each chimeric IL-6R was assessed using an anti-human-CD126 PE or an anti-mouse CD126-PE antibody (BD Pharmingen).

MUTANT 5 = molecular target: T3, MUTANT 5 (mouse, UniProt P22272); assay: as above
T3 construct: also called mouse IL-6R with human residues in D3, mutant 5
T3 sequence (receptor chain, looked up): T2 sequence (receptor chain, looked up) with W261L, S262R, L264V, R265K, L276F, D277G, L278Q, Q280E
Text: as §1, §2

MUTANT 1 = molecular target: T4, MUTANT 1 (mouse, UniProt P22272); assay: as above
T4 construct: also called mouse IL-6R with human residues in D3, mutant 1
T4 sequence (receptor chain, looked up): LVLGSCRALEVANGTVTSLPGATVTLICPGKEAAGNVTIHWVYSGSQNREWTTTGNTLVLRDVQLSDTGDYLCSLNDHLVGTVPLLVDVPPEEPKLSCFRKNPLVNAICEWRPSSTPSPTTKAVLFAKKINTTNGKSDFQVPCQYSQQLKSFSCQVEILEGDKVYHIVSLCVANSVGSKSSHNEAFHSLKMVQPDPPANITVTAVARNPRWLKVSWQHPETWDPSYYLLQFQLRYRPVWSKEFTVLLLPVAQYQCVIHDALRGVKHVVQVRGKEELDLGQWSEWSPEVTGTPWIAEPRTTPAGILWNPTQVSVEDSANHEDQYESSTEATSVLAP
Text: as §1, §2

MUTANT 2 = molecular target: T5, MUTANT 2 (mouse, UniProt P22272); assay: as above
T5 construct: also called mouse IL-6R with human residues in D3, mutant 2
T5 sequence (receptor chain, looked up): T2 sequence (receptor chain, looked up) with P237A, V238E, W239R, E242T, W261L, S262R, L264V, R265K
Text: as §1, §2

EC50 (read off the curve) [1]: ~0.2 µg/mL
binding result (MUTANT 4): no binding
binding result (MUTANT 5): no binding
binding result (MUTANT 1): no binding
binding result (MUTANT 2): binds
B1: NI-1201 wild type (NI-1201-WT) antibody (antibody, V domains shown)
VH: QVQLVQSGAEVKKPGSSVKVSCKASGGTFSSYAISWVRQAPGQGLEWMGGIIPLFDTTKYAQQFQGRVTITADESTSTAYMELSSLRSEDTAVFYCARDRDILTDYYPMGGMDVWGQGTTVTVSS
VL: AIQLTQSPSSLSASVGDRVTITCRASQGISSVLAWYQQKPGKAPKLLIYDASSLESGVPSRFSGSGSGTDFTLTISSLQPEDFATYYCQQSNSYPLTFGGGTKVEIKR
notes: Fully human monoclonal IgG (captured by anti-human IgG Fc in Biacore); also called 39B9 VL1

From US20160130351A1 (NOVIMMUNE S A, published 2016)
